The data set has as its system FasR wild-type (FasRwt) (Mycobacterium tuberculosis H37Rv). As to the kind of experiment: EMSA.

The record followed here is PMC7382501.

With PfasMT promoter fragment (398 bp), the dissociation constant (Kd) (in general, the equilibrium constant for the complex coming apart) is 83 nM.
